Experimental data: publication PMC8294330, “A cooperative PNPase-Hfq-RNA carrier complex facilitates bacterial riboregulation”

T1: PNPase WT (Escherichia coli, UniProt P05055 1-711)
T1 sequence: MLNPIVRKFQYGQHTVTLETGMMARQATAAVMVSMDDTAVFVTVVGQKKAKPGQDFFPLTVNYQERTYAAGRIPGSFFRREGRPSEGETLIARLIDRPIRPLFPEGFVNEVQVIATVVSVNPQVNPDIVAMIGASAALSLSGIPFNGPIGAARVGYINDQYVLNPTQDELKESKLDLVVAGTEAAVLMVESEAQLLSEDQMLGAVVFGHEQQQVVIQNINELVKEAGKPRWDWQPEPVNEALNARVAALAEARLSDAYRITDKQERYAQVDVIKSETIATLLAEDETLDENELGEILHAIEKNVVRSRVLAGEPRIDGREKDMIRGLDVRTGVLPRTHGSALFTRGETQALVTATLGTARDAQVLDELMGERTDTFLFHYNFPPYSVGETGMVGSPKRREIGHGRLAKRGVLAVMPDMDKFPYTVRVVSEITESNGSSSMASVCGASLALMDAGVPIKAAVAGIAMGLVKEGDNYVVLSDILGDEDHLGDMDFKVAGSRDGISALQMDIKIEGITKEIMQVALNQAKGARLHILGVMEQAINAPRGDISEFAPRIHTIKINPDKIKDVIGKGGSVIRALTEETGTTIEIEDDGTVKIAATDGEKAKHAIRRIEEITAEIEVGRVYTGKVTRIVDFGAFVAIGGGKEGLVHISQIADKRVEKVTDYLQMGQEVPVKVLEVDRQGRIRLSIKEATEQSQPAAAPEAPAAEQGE


Columns and labels:
[1] = target: T2, PNPase WT;Hfq (Escherichia coli;Escherichia coli, UniProt P05055;P0A6X3 1-711;1-102, |); experiment: cryo-EM; carrier complex; 50 RNA nt modelled; EMSA: 0.4 uM RNA, PNPase trimer 1:1 and 3:1 over RNA, 20 mM Tris pH 7.5, 100 mM NaCl, 1 mM MgCl2, 1 mM DTT, 30 C 20 min; native PAA gel with 10% glycerol, Tris-glycine pH 8.5; details: protein: recombinant;recombinant; tags: ;; chain copies: 3;6; single strand with hairpin
[2] = target: T1, PNPase WT; experiment: cryo-EM; phosphorolytic mode; 8 RNA nt modelled; EMSA: 0.4 uM RNA, PNPase trimer 1:1 and 3:1 over RNA, 20 mM Tris pH 7.5, 100 mM NaCl, 1 mM MgCl2, 1 mM DTT, 30 C 20 min; native PAA gel with 10% glycerol, Tris-glycine pH 8.5; details: protein: recombinant; chain copies: 3; single strand with hairpin
[3] = target: T2, PNPase WT;Hfq; experiment: cryo-EM; two stacked Hfq hexamers; EMSA: 0.4 uM RNA, PNPase trimer 1:1 and 3:1 over RNA, 20 mM Tris pH 7.5, 100 mM NaCl, 1 mM MgCl2, 1 mM DTT, 30 C 20 min; native PAA gel with 10% glycerol, Tris-glycine pH 8.5; details: protein: recombinant;recombinant; tags: ;; chain copies: 3;12; single strand

Row | Binder | binding result [1] | binding result [2] | binding result [3]
1 | 3'ETSleuZ (structured_RNA) RNA: GGGAAAGAUAAGAAUAAAAUCAAAGCAAUAAGCAGUGUCGUGAAACCACCUUCGGGUGGUUUUUUU | binds | binds | 
2 | CyaR (structured_RNA) RNA: GCUGAAAAACAUAACCCAUAAAAUGCUAGCUGUACCAGGAACCACCUCCUUAGCCUGUGUAAUCUCCCUUACACGGGCUUAUUUUUU |  |  | binds
